# Laboratory results from patent US20050260657A1.
# Legend:
# [1] = target: endogenous IP3R1 of HeLa cells (UniProt Q14643); experiment: cell-based or functional assay
# [2] = target: IP3R1 (inositol 1,4,5-trisphosphate receptor type 1), untagged, expressed in cells (mouse) (UniProt P11881); experiment: cell-based or functional assay
# Chain of endogenous IP3R1 of HeLa cells (Q14643 whole entry): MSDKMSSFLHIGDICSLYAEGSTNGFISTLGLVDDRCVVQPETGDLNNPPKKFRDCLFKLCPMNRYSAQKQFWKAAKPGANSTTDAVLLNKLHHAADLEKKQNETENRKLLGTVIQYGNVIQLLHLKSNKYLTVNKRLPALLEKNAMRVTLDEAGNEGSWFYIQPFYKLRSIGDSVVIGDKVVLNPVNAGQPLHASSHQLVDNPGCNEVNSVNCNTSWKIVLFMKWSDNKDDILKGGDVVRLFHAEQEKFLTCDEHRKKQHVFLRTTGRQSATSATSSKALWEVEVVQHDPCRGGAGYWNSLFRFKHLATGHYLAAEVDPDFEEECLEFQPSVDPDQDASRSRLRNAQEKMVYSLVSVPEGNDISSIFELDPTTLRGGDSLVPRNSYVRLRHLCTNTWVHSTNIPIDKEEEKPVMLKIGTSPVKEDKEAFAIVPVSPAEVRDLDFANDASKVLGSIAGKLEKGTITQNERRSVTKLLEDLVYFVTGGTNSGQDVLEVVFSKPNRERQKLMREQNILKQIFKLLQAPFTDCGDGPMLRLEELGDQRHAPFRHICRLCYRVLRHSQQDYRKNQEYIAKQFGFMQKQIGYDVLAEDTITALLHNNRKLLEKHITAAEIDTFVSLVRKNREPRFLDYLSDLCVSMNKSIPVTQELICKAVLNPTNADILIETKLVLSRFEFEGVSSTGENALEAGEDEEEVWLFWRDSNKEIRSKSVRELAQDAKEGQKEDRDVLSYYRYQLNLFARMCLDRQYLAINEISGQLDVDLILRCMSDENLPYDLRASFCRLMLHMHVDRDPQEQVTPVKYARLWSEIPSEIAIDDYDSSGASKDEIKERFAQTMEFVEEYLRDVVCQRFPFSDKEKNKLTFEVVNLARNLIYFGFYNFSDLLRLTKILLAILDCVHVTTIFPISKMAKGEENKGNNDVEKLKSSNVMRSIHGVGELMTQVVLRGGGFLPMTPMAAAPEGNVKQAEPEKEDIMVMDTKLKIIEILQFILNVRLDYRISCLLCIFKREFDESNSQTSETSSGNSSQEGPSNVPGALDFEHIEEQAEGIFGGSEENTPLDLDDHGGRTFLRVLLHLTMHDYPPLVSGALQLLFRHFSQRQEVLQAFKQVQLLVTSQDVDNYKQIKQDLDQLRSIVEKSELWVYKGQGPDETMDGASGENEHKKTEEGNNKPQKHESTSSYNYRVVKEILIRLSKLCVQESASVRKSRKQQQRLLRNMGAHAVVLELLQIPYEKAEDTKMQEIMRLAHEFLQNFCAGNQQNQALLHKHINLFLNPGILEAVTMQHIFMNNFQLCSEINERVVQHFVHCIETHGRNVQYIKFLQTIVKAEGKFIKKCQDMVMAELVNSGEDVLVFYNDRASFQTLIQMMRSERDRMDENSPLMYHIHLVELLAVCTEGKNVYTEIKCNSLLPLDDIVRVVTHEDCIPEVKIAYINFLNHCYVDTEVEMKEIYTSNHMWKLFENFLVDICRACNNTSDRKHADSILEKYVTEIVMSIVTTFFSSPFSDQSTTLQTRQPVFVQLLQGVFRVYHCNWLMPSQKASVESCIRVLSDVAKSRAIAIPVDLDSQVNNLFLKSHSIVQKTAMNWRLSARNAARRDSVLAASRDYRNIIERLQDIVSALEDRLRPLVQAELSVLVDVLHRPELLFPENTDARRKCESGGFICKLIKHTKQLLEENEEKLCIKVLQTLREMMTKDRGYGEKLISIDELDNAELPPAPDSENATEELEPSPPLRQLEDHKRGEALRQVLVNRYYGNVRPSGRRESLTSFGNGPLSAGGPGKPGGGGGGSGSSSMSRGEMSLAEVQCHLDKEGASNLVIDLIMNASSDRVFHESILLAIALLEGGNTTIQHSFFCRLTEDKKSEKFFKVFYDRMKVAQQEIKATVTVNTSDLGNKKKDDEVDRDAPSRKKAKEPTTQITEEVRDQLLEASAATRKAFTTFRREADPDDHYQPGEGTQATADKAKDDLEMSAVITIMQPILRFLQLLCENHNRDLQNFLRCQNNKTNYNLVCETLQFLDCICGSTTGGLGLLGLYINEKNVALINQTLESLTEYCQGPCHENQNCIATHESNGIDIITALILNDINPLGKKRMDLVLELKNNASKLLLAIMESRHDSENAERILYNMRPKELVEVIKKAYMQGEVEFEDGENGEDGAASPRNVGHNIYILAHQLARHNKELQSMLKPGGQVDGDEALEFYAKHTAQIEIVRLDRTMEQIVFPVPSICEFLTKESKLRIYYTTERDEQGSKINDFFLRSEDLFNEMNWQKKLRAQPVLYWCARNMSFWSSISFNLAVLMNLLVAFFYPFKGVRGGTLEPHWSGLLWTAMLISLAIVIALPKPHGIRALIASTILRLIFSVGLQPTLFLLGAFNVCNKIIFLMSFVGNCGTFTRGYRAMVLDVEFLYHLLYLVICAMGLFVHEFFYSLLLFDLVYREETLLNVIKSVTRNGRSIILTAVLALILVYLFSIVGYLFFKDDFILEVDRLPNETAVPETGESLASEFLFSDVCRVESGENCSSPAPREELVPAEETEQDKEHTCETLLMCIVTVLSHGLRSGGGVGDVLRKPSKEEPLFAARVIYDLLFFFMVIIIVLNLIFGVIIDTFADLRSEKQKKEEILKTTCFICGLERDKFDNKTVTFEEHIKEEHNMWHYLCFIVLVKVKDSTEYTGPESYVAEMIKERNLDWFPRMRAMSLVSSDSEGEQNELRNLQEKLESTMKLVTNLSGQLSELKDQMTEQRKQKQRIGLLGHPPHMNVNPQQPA
Substance,Ca2+ response in siERp44-3U-pretreated HeLa cells compared with RFP-RDEL-transfected cells [1],"peak amplitude of BCR-induced Ca2+ release in DT40-KMN60 cells, percent of non-transfected cells [2]","peak amplitude of ATP-induced Ca2+ transient in HeLa cells, percent of non-transfected cells [1]"
RFP-ERp44-C58S (from UniProt Q9D1Q6 30-406),77.1%,,
RFP-ERp44 (red fluorescent protein-tagged ERp44) (from UniProt Q9D1Q6 30-406),,60.6%,69.3%
